We go through one molecule from patent US20240400621A1, “PEPTIDES FOR METABOLIC SYNDROME” (ALPARIS, S.A. de C.V., priority 2021, published 2024).

The test system of experiment [1] is insulin. Kind of experiment: Insulin levels (secretion in response to glucose) in mice fed a high-fat diet. In kind it is in vivo, mice (C57BL/6JN). To be noted: 12 weeks; versus DAG group. The protocol:
(§1) For all the in vivo testing, male mice of the C57BL/6JN strain between 8 to 10 weeks of age were used, housed in groups of 3 to 5 mice per cage with food and water ad libitum in ventilated racks, and whose microbiota were unified for 4 weeks.
(§2) The mice received either 200 μL of a phosphate buffer solution (PBS) at pH 7.5 (as a vehicle), or 200 μL of the PBS solution, with each of the intragastric treatments daily for 12 weeks. They were fed either a Normal Diet (DN, Harlan, Teklad 2018SX) with 18% of the calories coming from fat, or a High-Fat Diet (DAG, Research Diets, D12491), with 60% of the calories coming from fat.
(§3) All the mice were randomly divided into five experimental groups in order to study the effect of SEQ ID NO: 3 and SEQ ID NO: 2 correctly: • Group 1—Mice with DN that received 200 μl of PBS intragastrically. • Group 2—Mice with DAG that received 200 μl of PBS intragastrically. • Group 3—Mice with DAG that received 200 μl of PBS with SEQ ID NO: 3 intragastrically at a dose of: 2.5 μg/mouse. • Group 4—Mice with DAG that received 200 μl of PBS with SEQ ID NO: 2 intragastrically at a dose of 0.6 μg/mouse (high dose). • Group 5—Mice with DAG that received 200 μl of PBS with SEQ ID NO: 2 intragastrically at a dose of 0.2 μg/mouse (low dose).
This means that the peptide SEQ ID NO: 3 improves insulin sensitivity, preventing insulin resistance from developing.

In experiment [2] the test system is IL-1B. Nature of the experiment: Circulating IL-1B levels in mice fed a high-fat diet. In kind it is in vivo, mice (C57BL/6JN). To be noted: 12 weeks; versus DAG; including SEQ ID NO: 2 at low doses. The protocol: as §1
The mice received either 200 μL of a phosphate buffer solution (PBS) at pH 7.5 (as a vehicle), or 200 μL of the PBS solution, with each of the intragastric treatments daily for 12 weeks. They were fed either a Normal Diet (DN, Harlan, Teklad 2018SX) with 18% of the calories coming from fat, or a High-Fat Diet (DAG, Research Diets, D12491), with 60% of the calories coming from fat. […]
To determine the effect of the peptides SEQ ID NO: 2 and SEQ ID NO: 3 in attenuating the inflammatory process in adipose tissue, the cellular infiltrate of the adipose tissue of the mice was quantified after they had been fed DAG.

The target of experiment [3] is T1, hTLR2 (Homo sapiens, UniProt O60603).
T1 construct: expressed in transfected cells; host or cells: HEK-Blue hTLR2 cells
Kind of experiment: hTLR2 stimulation in HEK-Blue hTLR2 cells (NF-κβ/SEAP reporter, QUANTI-Blue). In kind it is cell-based. The protocol:
The analysis of the biological activity of the protein of SEQ ID NO. 1 was performed via an in vitro Toll-like receptors (TLRs) recognition assay. The HEK-Blue hTLR2 cell line expressing the hTLR2 receptor was used, whose stimulation activates the NF-Kβ factor, which in turn induces the production of the reporter protein, secreted embryonic alkaline phosphatase (SEAP). The SEAP levels are quantified by a colorimetric method with the reagent QUANTI-Blue and correspond to hTLR2 stimulation levels. The HEK-Blue hTLR2 cell line was thawed and propagated to make a master cell bank. From this bank, a vial was thawed to check the correct growth of the cell line and the absence of mycoplasma contamination. The cells of the thawed vial were propagated to make a working cell bank and continue the subcultures to mount the activity assay of SEQ ID NO. 1. This consisted of a series of tests in which the cellular response was evaluated with different molecules to determine the most suitable conditions for the assay.
The determined EC50 for SEQ ID NO. 1 was 1147±211 ng/ml (35.1±6.4 nM).
The in vitro biological activity of SEQ ID NO:2, SEQ ID NO:3, SEQ ID NO:4, SEQ ID NO: 8, SEQ ID NO:9, SEQ ID NO: 10, SEQ ID NO:11, SEQ ID NO: 12, SEQ ID NO: 13, SEQ ID NO: 14, SEQ ID NO: 15, and SEQ ID NO:16 was tested via the stimulation of hTLR2 in the cultures of HEK-Blue hTLR2 cells in 96-well plates for 24 h. After collecting the supernatant, the plate was incubated with QUANTI-Blue at 37° C. for 1 h, and absorbance was measured at 620 nm.
To determine the EC50, the absorbance was plotted against the logarithm of protein concentration, and the data was adjusted to a dose-response sigmoidal ligand binding model with 4 parameters. The cell culture medium was used as a negative control, and PAM (synthetic triacylated lipopeptide (Pam3CSK4)) was used as a positive control.

Experiment [4] can be described thus: Body weight of mice on high-fat diet (DAG) with intragastric peptide for 12 weeks. Type of experiment: in vivo, mice (C57BL/6JN). As to the method:
as §1, §2, §3
The animal weights and feed intakes were recorded weekly.
To determine the metabolic status of the animals before starting the experiment, weight, basal glucose levels, glucose tolerance, and insulin resistance were recorded.

The target in experiment [5] is human Toll-like receptor 2 (hTLR2) on HEK-Blue hTLR2 cells (human (printed as hTLR2), UniProt O60603 21-784). Kind of experiment: cell-based or functional assay.
Chain of human Toll-like receptor 2 (hTLR2) on HEK-Blue hTLR2 cells (O60603 21-784): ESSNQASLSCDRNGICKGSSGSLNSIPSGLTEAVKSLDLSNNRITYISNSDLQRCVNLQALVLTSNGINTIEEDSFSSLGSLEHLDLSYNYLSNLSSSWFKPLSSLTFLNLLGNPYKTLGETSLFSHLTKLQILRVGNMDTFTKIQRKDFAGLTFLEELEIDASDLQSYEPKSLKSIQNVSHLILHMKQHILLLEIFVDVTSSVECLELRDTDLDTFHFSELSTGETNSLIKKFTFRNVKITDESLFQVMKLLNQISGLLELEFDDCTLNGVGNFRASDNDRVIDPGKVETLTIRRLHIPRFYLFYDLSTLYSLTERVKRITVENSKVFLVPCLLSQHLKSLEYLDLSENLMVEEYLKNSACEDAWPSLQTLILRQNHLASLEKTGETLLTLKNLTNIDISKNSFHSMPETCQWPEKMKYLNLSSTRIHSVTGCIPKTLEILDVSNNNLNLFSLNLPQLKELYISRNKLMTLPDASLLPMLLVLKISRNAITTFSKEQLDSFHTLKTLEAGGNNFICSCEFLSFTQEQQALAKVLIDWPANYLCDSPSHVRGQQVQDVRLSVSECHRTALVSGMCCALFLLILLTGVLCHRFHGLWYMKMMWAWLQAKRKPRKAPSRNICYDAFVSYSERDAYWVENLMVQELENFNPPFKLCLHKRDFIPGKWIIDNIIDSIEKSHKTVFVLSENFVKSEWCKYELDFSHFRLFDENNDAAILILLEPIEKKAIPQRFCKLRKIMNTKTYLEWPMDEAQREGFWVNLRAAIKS

T1 sequence (O60603 21-784): as above

B1: peptide SEQ ID NO: 3 (carboxyl terminal domain of SEQ ID NO: 1) (peptide)
chain: QLPIETPANNPEESDEADQAPWTPMPLEIAFQGDRESVLKAMNAITGMQDYLFTVNSIRIRNERMMPPPIANPAAAKPAAAQPATGAASLTPADEAAAPAAPAIQQVIKPYMGKEQVFVQVSLNLVHFNQPKAQEPSED
For the molecule B1, in experiment [1], the “insulin secretion in response to glucose administration” value was “statistically significant reduction in insulin secretion”. In addition, in experiment [2], the “circulating levels of IL-1B” value was “prevented the increase in the circulating levels of IL-1B”. The “concentration from which hTLR2 is (significantly) stimulated” value in experiment [3] (HEK-Blue hTLR2 cells, 24 h) amounted to 8 nM. In addition, the “relative response compared to PAM” value in experiment [3] (from 229 nM, PAM (Pam3CSK4) positive control) is given as 107%. In addition, the Average weight in experiment [4] (0 weeks (initial state), DAG + SEQ ID NO: 3 group) was determined as 21.4 grams; in experiment [4] (12 weeks, DAG + SEQ ID NO: 3, 2.5 μg/mouse intragastric daily), 37.9 grams. Moreover, the “EC50” value in experiment [5] amounted to 25.9 nM.

By EC50 is commonly meant the midpoint of the concentration-response curve.
